The text below walks through data of patent US20140255414A1 (PROBIODRUG, published 2014).

The target of test [1] is T1, Aβ(pE11-30) peptide (N-terminal pyroglutamate (Aβ position 11)).
T1 construct: Synthesized peptide; Amine-coupled to a CM5 chip for SPR, or adsorbed to the microplate for the direct ELISA
T1 peptide: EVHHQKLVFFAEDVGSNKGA
Kind of test: direct ELISA: AβpE(11-30) coated at 0-500 ng/ml, 1 µg/ml biotinylated antibody pre-incubated with streptavidin-HRP, absorption 450/540 nm. The procedure: AβpE(11-30) peptide with different concentrations was coated over night at 4° C. and then blocked with ELISA-Blocker (−T) 2 h at RT. Anti Aβ11(pE) antibody (clone 13) biotinylated was pre-incubated with streptavidin-HRP conjugate 10 min at RT and diluted in ELISA-Blocker (+T) were performed. Addition of 1 μg/ml antibody (clone 13). Wash cycles in-between incubations with 6×300 μl/well TBS-T buffer (except after peptide coating). TMB/H₂O₂ were added, incubated 30 min at RT (dark) and enzyme reaction was stopped with 1 M H₂SO₄. Absorption was measured at 450/540 nm at TECAN Sunrise.

Test [2] addresses T2, Aβ(pE11-18)-PEG peptide (reading uncertain).
T2 construct: The PEG attachment is not described further
T2 peptide: [pGlu]VHHQKLV-{PEG}
Kind of test: ITC at 20 °C, peptide titrated into biotinylated antibody. As for the experimental part:
1.3.4.1 Determination of Thermodynamic Parameters With ITC, the thermodynamic parameters of the binding of anti Aβ11(pE) antibody from clone 13 at antigen Aβ11(pE) was determined. For the ITC experiment, the peptide Aβ(pE11-18)-PEG was used because the hydrophilic PEG group imparts hydrophilic properties and so it was possible to dissolve the peptide directly in ITC buffer. Former experiments with Aβ(pE11-20) could only be performed with 1-2% DMSO, due to the strong hydrophobicity of the peptide it was necessary to dissolve it with DMSO which could have an effect on the ITC binding properties. At first the antibody was dialyzed against ITC buffer (150 mM NaCl, 25 mM Na₂HPO₄, 25 mM KH₂PO₄, 1 mM EDTA, pH=7.1) over night at 4° C. The lyophilised peptide, stored at −20° C., was dissolved in identical ITC buffer pH=7.1 which was used for antibody dialysis. Both antibody and antigen must be in identical solutions, otherwise large heats of dilution will mask the desired observation. Before the ITC experiment, the concentration of antibody was determined by UV/VIS spectroscopy (see section 1.3.1). At first the antibody with e.g. 5.13 μM (see Table 4) was added into the sample cell and the reference cell was filled with distilled water. Then the antigen was injected into the sample cell with e.g. 81.78 μM (see Table 4). The antigen should be generally in twofold excess to the antibody, bearing in mind that an antibody has two binding sites the antigen was in the cell at least in fourfold excess to the antibody. The 30 injections (1×2 μl and 29×10 μl) were made with a 4-min interval between subsequent injections. The measurement of heat of reaction was performed at 20° C. Furthermore the heat of reaction was determined which was only generated by dilution of the antigen through the titration into ITC buffer (pH=7.1). Therefore the antigen was injected into the sample cell filled with ITC buffer. The heat of reaction which was generated during the titration of the antigen to the antibody was corrected about this value. The analysis of raw data and the determination of the association constant (KA), reaction stoichiometry (n), binding enthalpy (ΔH) and entropy (ΔS) was performed with Origin Software of MicroCal.

What is called Kd is the constant that tells how readily two partners part at equilibrium. A higher Kd goes with lower affinity.

Square brackets hold non-standard residues; d marks the D form. pGlu = O=C1CC[C@@H](C(=O)O)N1; PEG = not defined here

B1: biotinylated monoclonal mouse anti Aβ11(pE) antibody (clone 13) (antibody, V domains shown)
VH: QVQLQQPGTELVKPGASVKLSCKASGFTFTSYWMHWVRQRPGQGLEWIGEINPSNGRTNYNEKFKSKATLTVDKSSSTAYMQLSSLTSEDSEVYYCARGDLAWDWSAYWGQGTLVTVSA
VL: DIVMSQSPSSLAVSAGEKVTMSCKSSQSLFYSRTRKNYLAWYQQKPGQSPKLLIYWASTRESGVPDRFTGSGSGTDFTLTISSVQAEDLAVYYCKQSYNLWSFGGGTKLEIKR
modifications: about 2 biotin molecules (NHS-PEO4-Biotin) coupled per antibody; sites not stated
notes: Mouse IgG; also called anti Aβ11(pE)-biotin antibody (clone 13); mAb mouse anti Aβ11(pE)-Biotin
Take B1: the binding result in test [1] was “binds”. Moreover, in test [2], the “-TΔS” value is -4.1 kJ/mol, the Ka was found to be 8e+06 M⁻¹, the dissociation constant (Kd) is 0.125 µM and the “Stoichiometry (N)” value is 1.66.
